Measurements reported in the supplement of paper PMC12042874.
± gives the uncertainty stated by the source.

Assay: amyloid nucleation score (Sup35N fusion, yeast selection) (log enrichment); library NNK3; higher = more nucleation; inactive = no reads after selection
In short: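 Nucleation score is defined as the DiMSum log enrichment of output over input reads, with centring on the mode score of non-aggregating sequences. A minimum of 100 input reads was required for each sequence. Reads came from Illumina sequencing of plasmid inserts from psi-negative yeast expressing Sup35N fused to peptides of 20 random codons, induced with 100 μM copper sulfate for 24 hours and grown 7 days at 30°C on medium lacking adenine and uracil.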

**Q.** For VVSLMDTPFD, which amyloid nucleation score is on record?
**A.** inactive

**Q.** For LIALNYVWYTAQ, which amyloid nucleation score is on record?
**A.** inactive

**Q.** Which amyloid nucleation score does the source give for TDTIKSVVYVSVLDGDYNSG here?
**A.** inactive

**Q.** For IKRSGGYVGFCRLVERSQRG, which amyloid nucleation score is on record?
**A.** inactive

**Q.** For MRGRFLASPGWFTFRIFFVF, which amyloid nucleation score is on record?
**A.** 0.836 ± 0.27

**Q.** Which amyloid nucleation score does the source give for AMIMSFFWRKVT here?
**A.** inactive

**Q.** For KILQDKKMFRGFRNGRRAGI, which amyloid nucleation score is on record?
**A.** inactive

**Q.** For YYAPVCYLSTKQGKARRPPP, which amyloid nucleation score is on record?
**A.** inactive

**Q.** Which amyloid nucleation score does the source give for KQSYCVWESNYRTMYLNVCR here?
**A.** inactive

**Q.** Which amyloid nucleation score does the source give for HKGFVSKIGNN here?
**A.** -0.4 ± 0.9

**Q.** For TGLKYRLY, which amyloid nucleation score is on record?
**A.** inactive

**Q.** For YLSRLIIFLSLPD, which amyloid nucleation score is on record?
**A.** inactive

**Q.** For FPGRQIYYILVLAQAFASGF, which amyloid nucleation score is on record?
**A.** inactive

**Q.** For VICFAARALVYC, which amyloid nucleation score is on record?
**A.** inactive

**Q.** For MYYSSYR, which amyloid nucleation score is on record?
**A.** inactive

**Q.** With NLHNVMRKFTQGFSGHKTKL as the substance, how does the amyloid nucleation score read?
**A.** inactive

**Q.** With SQCFIY as the substance, how does the amyloid nucleation score read?
**A.** -0.514 ± 0.78

**Q.** For YQNVMWLC, which amyloid nucleation score is on record?
**A.** inactive

**Q.** With EFLPKWDMQARDVTTLFGCP as the substance, how does the amyloid nucleation score read?
**A.** inactive

**Q.** Which amyloid nucleation score does the source give for LPFNGTGTAWCSAGAQLFGR here?
**A.** 0.837 ± 0.15

**Q.** With DFDFQIYC as the substance, how does the amyloid nucleation score read?
**A.** 0.507 ± 0.25

**Q.** With PGWVDHIEAISRTVRGWFGP as the substance, how does the amyloid nucleation score read?
**A.** 1.77 ± 0.12

**Q.** With AVEEHLIHLSCCVQAVNRRV as the substance, how does the amyloid nucleation score read?
**A.** 2.36 ± 0.074

**Q.** Which amyloid nucleation score does the source give for FNYKARYSNPVRDAIYWLQI here?
**A.** inactive

**Q.** For YARWDRSKYMTRYCHCCYFL, which amyloid nucleation score is on record?
**A.** inactive

**Q.** With GEWLCVFFSWPSGSPIVPWE as the substance, how does the amyloid nucleation score read?
**A.** inactive

**Q.** With GSCCNQG as the substance, how does the amyloid nucleation score read?
**A.** inactive

**Q.** With NVTNSRHHLQFGYMRAMVNV as the substance, how does the amyloid nucleation score read?
**A.** inactive

**Q.** For KMDKFPV, which amyloid nucleation score is on record?
**A.** 0.391 ± 0.34

**Q.** With TLPKVMFVIQNYGFFSGFTL as the substance, how does the amyloid nucleation score read?
**A.** 1.32 ± 0.079

**Q.** With VLVMISSWNYLMCIFFCINV as the substance, how does the amyloid nucleation score read?
**A.** inactive

**Q.** Which amyloid nucleation score does the source give for ICTGDSNNSGYVCQLVTKEE here?
**A.** inactive

**Q.** For TCVKMDRRSLAINALLSYYR, which amyloid nucleation score is on record?
**A.** inactive

**Q.** Which amyloid nucleation score does the source give for EGGDHCMNGHCVCRVGWLWA here?
**A.** inactive

**Q.** With QYVWCGPFERYLASSVYGFS as the substance, how does the amyloid nucleation score read?
**A.** inactive

**Q.** Which amyloid nucleation score does the source give for KGYSKCEDPMLECYYCTPVN here?
**A.** inactive

**Q.** With NHCYLLL as the substance, how does the amyloid nucleation score read?
**A.** inactive

**Q.** Which amyloid nucleation score does the source give for SQCGLTHSLVVGGSSVNTHT here?
**A.** inactive

**Q.** For ELVVTNVNGFLMW, which amyloid nucleation score is on record?
**A.** inactive

**Q.** For MVKCQWGFRL, which amyloid nucleation score is on record?
**A.** 1.33 ± 0.12

**Q.** Which amyloid nucleation score does the source give for YYLMLSIGQYSHTCMDGYVM here?
**A.** inactive

**Q.** Which amyloid nucleation score does the source give for VSGMNSKLFYW here?
**A.** inactive

**Q.** With LMGLNYAWDAFWLIFPGLCF as the substance, how does the amyloid nucleation score read?
**A.** inactive

**Q.** With KNTVSYSATLGKVSMSERRR as the substance, how does the amyloid nucleation score read?
**A.** inactive

**Q.** For VYYFRQLFPICIDNQARTWC, which amyloid nucleation score is on record?
**A.** inactive

**Q.** Which amyloid nucleation score does the source give for YLNDCDFGVVFEMESKLWTA here?
**A.** inactive

**Q.** For LKIAQHRGSVFNGDKK, which amyloid nucleation score is on record?
**A.** inactive

**Q.** Which amyloid nucleation score does the source give for RAVNKFAVNTTKGGSHSWHS here?
**A.** inactive

**Q.** Which amyloid nucleation score does the source give for LLLFRKRLMLPRVLQQVPRH here?
**A.** inactive

**Q.** With RDCICSRYIYGLRLSVLIWN as the substance, how does the amyloid nucleation score read?
**A.** -0.44 ± 0.66

**Q.** Which amyloid nucleation score does the source give for SNSSHRRYYGHVRRNL here?
**A.** inactive

**Q.** For TEISSSMSFVHNFIYVCDR, which amyloid nucleation score is on record?
**A.** inactive

**Q.** For RISRNGCGCGILYVIIRN, which amyloid nucleation score is on record?
**A.** inactive

**Q.** Which amyloid nucleation score does the source give for GTFNIDVEVMVYRAGLFKHV here?
**A.** inactive

**Q.** Which amyloid nucleation score does the source give for NLYMDEHHFKAFNGCTNQLI here?
**A.** inactive

**Q.** For KAGVRKRKAER, which amyloid nucleation score is on record?
**A.** inactive

**Q.** For TVEKTWKTVYIYKDSVTLRN, which amyloid nucleation score is on record?
**A.** 1.33 ± 0.12

**Q.** Which amyloid nucleation score does the source give for MMDSWYVVVRYLSTLYNCDI here?
**A.** inactive

**Q.** For LLFTCQSDKDYVRFFVQFNW, which amyloid nucleation score is on record?
**A.** inactive

**Q.** For SHNLSWDIGHLGIV, which amyloid nucleation score is on record?
**A.** inactive

**Q.** Which amyloid nucleation score does the source give for CSGHYLFILLGFDTYNGEVF here?
**A.** inactive

**Q.** Which amyloid nucleation score does the source give for RCVIALMLYVILGMNGWKAS here?
**A.** inactive

**Q.** Which amyloid nucleation score does the source give for FHVVFCDID here?
**A.** inactive

**Q.** Which amyloid nucleation score does the source give for YRIWEQTLMFYVNLSRAKCF here?
**A.** inactive

**Q.** With VTCNVSSYGTMKEKVAYEGS as the substance, how does the amyloid nucleation score read?
**A.** -0.003 ± 0.88

**Q.** For MRAIMWFINKDLLLTCGDDS, which amyloid nucleation score is on record?
**A.** inactive

**Q.** For INYQLMW, which amyloid nucleation score is on record?
**A.** 0.9 ± 0.1

**Q.** For CPVRGPKVVIQCMMLSILTV, which amyloid nucleation score is on record?
**A.** inactive

**Q.** With GSYWKHVWLRYTSHGLTPQW as the substance, how does the amyloid nucleation score read?
**A.** inactive

**Q.** Which amyloid nucleation score does the source give for SKACAVLAYNLVGFEFHFEF here?
**A.** 1.69 ± 0.074

**Q.** Which amyloid nucleation score does the source give for CDNYVLPNYRYLSGFFKFGL here?
**A.** inactive

**Q.** With RLYVLAGITLTMTSTTKRSL as the substance, how does the amyloid nucleation score read?
**A.** inactive

**Q.** With IKATWRSFMCVIFNLLLLP as the substance, how does the amyloid nucleation score read?
**A.** -0.184 ± 1.3

**Q.** With LKARYYNYIASERSGCEFHK as the substance, how does the amyloid nucleation score read?
**A.** inactive

**Q.** With YTSEFVIAAWSLLFDDRYMS as the substance, how does the amyloid nucleation score read?
**A.** inactive

**Q.** For TVSYRTTIWWRSINFNRRAL, which amyloid nucleation score is on record?
**A.** inactive

**Q.** Which amyloid nucleation score does the source give for WYRYFGCEDP here?
**A.** inactive

**Q.** For ASGSFKPFFSVEWYLS, which amyloid nucleation score is on record?
**A.** inactive
